Test results taken from patent US20210087298A1.

Assays:
HER2 [1] = target: HER2 (UniProt P04626); assay: apparent Kd, flow cytometry on SKOV3 cells
HER2 [2] = target: HER2 (UniProt P04626); assay: apparent Kd, flow cytometry on SKOV3 cells (n = 2)
HER2 [3] = target: HER2 (UniProt P04626); assay: apparent Kd, flow cytometry on SKBr3 cells
HER2 [4] = target: HER2 (UniProt P04626); assay: apparent Kd, flow cytometry on JIMT-1 cells

Substance | Kd (HER2 [1]) [nM] | Kd (HER2 [2]) [nM] | Kd (HER2 [3]) [nM] | Kd (HER2 [4]) [nM]
trast A158N-MB488: trastuzumab A158N mutant conjugated through Neu5NAz on Fd glycans (antibody) | 3.3 | 3.5 | 2.6 | 3.9
trast K129N-MB488 (antibody) | 3.1 | – | 2.3 | 3.2
trast L189N-MB488: trastuzumab L189N mutant conjugated through Neu5NAz on Fd glycans (antibody) | 3.4 | 3.5 | – | –
trast T191N-MB488 (antibody) | – | – | 1.8 | –
